In PMC5896931 (Molecular Biology of the Cell, 2018):

What was measured:
[1] = target: T1, 6His-SUMO-Cap2 (budding yeast, UniProt P13517 1-287); experiment: pull-down
T1 sequence (looked up): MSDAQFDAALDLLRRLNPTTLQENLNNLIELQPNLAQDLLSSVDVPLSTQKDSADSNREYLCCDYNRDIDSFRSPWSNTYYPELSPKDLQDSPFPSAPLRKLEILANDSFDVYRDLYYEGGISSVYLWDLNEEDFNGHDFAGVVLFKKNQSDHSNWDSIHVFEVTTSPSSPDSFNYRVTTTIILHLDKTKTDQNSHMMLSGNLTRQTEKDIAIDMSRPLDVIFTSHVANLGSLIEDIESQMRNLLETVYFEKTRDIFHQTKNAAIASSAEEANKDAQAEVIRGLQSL

[2] = target: T2, Aim21 (Altered Inheritance of Mitochondria 21), full length, 6His-SUMO tag cleaved (budding yeast, UniProt P40563 1-679); experiment: pull-down
T2 sequence (looked up): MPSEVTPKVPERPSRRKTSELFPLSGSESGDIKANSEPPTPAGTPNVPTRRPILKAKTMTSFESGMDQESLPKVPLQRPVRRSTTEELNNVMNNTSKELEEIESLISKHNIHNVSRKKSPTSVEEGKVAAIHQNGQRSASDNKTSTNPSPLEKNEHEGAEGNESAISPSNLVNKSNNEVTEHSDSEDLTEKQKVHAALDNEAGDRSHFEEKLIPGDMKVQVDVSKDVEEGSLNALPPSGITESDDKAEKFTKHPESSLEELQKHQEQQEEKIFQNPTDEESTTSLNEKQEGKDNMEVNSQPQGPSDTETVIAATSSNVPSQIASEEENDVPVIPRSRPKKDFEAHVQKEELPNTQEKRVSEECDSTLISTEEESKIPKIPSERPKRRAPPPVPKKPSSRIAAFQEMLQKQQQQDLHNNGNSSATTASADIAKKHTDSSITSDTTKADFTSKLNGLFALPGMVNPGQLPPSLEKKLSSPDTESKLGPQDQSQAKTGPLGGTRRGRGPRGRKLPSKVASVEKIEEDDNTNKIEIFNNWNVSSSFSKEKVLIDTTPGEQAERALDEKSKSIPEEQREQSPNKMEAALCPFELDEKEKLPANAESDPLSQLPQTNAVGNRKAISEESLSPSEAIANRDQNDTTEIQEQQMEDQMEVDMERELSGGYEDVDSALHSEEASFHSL

Row | Binder | binding result [1] | binding result [2]
1 | Cap1, 6His-SUMO tag cleaved (natural protein, budding yeast, UniProt P28495 1-268, looked up) MSSSKFEEVINKIINDSPPGELREVYDDLIKITSENSKNTILDAIENYNVQNCIPIEVNGNSVIISKYNKEGAKFFDPVNSVIFSVNHLERKGLDIEPYEFTHAKIEKGQLKELHDKLHEYLLQSFPGDVSFAVYPVPEEISKISIIIVSTKYNPNNFWNGHWRSSYIYDLETRELSGQISTQVHYYEDGNVSFQSGKDINQSNVDDVVCTIRDIETNFENDLDLSFFDLNEKQFKALRRRLPVTRSKINWGSAIGSYRLGKNAAEGK | binds | –
2 | 6His-SUMO-Tda2 (natural protein, budding yeast, UniProt P40045 1-126, looked up) MSMQIEIKDGRSDNSPLPERKLVTLIQESYDSLKDDNEINLSTESTSNLLIKLVLEKLEKHSSLYKYIASVTTLNIEGLNEENANFSLKNDIGASWESKKDGIFNYKLEDKNNNECYLITILWLHK | – | binds
